Test: label from the status in PepcDB records

## MAIGRLGYLVRGAWAGGVMLLAAGSAWAAPNWPLAPYSYYAQQQSLSDVLREFAAGFSLALQQGKGVQGVVNGRFNARTPTEFIERLSGIYGFNWFVHAGTLYVSRTSDVVTRAVDAAGASPSALRQALLQLGILDERFGWGELPAQGVAMVSGPPAYVALVEQAVAALPKGAGNQQVAVFRLKHASVSDRVIRYRDQQVVTPGMATMLRQLILGAGPGNDAALAAVAAPLRENPPVFGDAAADGNAPLAGAAQAAGRRLSEPSVQADTRLNALIVQDIPERMPIYRALIEQLDVPSTLIEIEAMIVDVNTDLVNELGVTWGAQIGTTSLGYGDLGLRPGNGLPVDGAAADLAPGTLGISVSTRLAARLRALESDGQANILSQPSILTADNLGAMIDLSDTFYIRTLGERVATVTPVTVGTSLRVTPRYIAAKGGRQVELAIDIEDGRVLQEYPIDGLPRVRKSSISTLAVVGDEQTLLIGGYNNRRDEEQVEKVPLLGDIPGLGFLFSSKSRAVQRRERLFLIRPRVVAIEGKPVFSPVAGTSQVFMSTGWGGHGSSLSIAPGEGGHTQVRHDARAGRPVRLVPDSLHVEYGEAGEASP
  protein production: failed

## MTWRKLSICMMVKDEEKNLKRCLESLKPILKGDEVELIVVDTGSKDRTVEIAKQYTNNIFYKPWNYNFSEMRNYTISLAKGEWIFILDADEELEDAKIILKEIEMAEKEGANAINIAVKNLVEENNKQNFVFGFSPRLFRNGFIKYEGAVHNQPIFRPPIYNSKIVIYHYGYIMNDTKLMEYKYKRTVSLLKKELEKDPLNIYYRYQLGVSYSMYGKIREAIEEFGKVYNLLKMENSEIKKGLVVVYGLYANNLLLLGLFDKALEVAEEGLNFNDEYIDLYYIAGLSLYAMGRRQEALVYFKKYMDLFKKVDQIKLLYDARVVFYNISNSYFDNVNAMVVQYLLDINNFLEAKVHIEQFKDNKLKLQYSTLLHIKEKNFNELFDFYSSCNQEDKEKVSEFIEKYITYFKFDEDERLEIYKKFSESNDVYGKYCCIITKKEKVESAILNIFDSNVFELLPSFYTKVLFRVAEKKEFLLETLKKIDVMVLRAKTAEALAAKFIDFEDVIQLLEVMKKEKADIDISARYIALALLVLLNFPRQSDERLYEIFLNYTENGILLISRLYKSEEIEEKYRYFLSEEEKYFALMYMIYLSLQEKRMDKSIKYLREAISTMPKLVKHLKRFSKDILGVDV
  protein production: failed

## MSDALINGLAGAGGGIIAQLLTYPLQTVNTRQQTERDLKREKRKLGTIEHMCQVVKQEGWERLYGGLAPSLAGTAASQGVYYYFYQVFRNRAEATALARKKKGLGDGSVGMFASLLVAAFAGSVNVLMTNPIWVIVTRMQTHRKMTKDQTAAPESPSSNAEALVAVEPRPYGTFNTIREVYDEAGITGFWKGVIPTLIMVSNPSMQFMLYETMLTKLKKKRALKGSNNVTALETFLLGAVAKLGATVTTYPLLVVKSRLQAKQVTTGDKRQQYKGTLDAILKMIRYEGLYGFYKGMSTKIVQSVLAAAVLFMIKEELVKGAKLLLSNATSS
  protein production: failed

## MATTKRVLYVGGLAEEVDDKVLHAAFIPFGDITDIQIPLDYETEKHRGFAFVEFELAEDAAAAIDNMNESELFGRTIRVNLAKPMRIKE
  protein production: not failed

## MTKFYKFLISIIILALVCLIFFLAKSNILNLDSLKNLILSSGYFAPLIYIIAFALVPLTFFPDSVLAILGGSIFGLGGGFLYTSIGALIGGSISFFISRILGQSFVEKFENDKLKNIQELLKDNGFLMILLLRLIPLFPFDLISYGAGLTKISYKDFALGTLIGTIPGILVFVNLGAQWITFNKTSIYLSVSLLILFIIVSVFLKKIYINKHLAKEN
  protein production: failed

## ASIVGSWVEPVPGLEGQVQGIKMEEGGVASSVNMATLVYESWKQEGTKLILTGKSIGNGQTIEFVDTMDIKRLTADSLVLDNQGMEIRYAKQK
  protein production: not failed

## TTQNELLNRIAELETKVAFQDNVIEELNQVLIHHQFVLDKLQTQVRHFANKFKNIQSSNVASQAEETPPPHY
  protein production: failed

## MAAFTGTTDKCKACDKTVYVMDLMTLEGMPYHKSCFRCSHCNGTLVICNYSSMDGVLYCKTHFEQLFKESGNFSKNFQTAGKTEKSNDAAPNRLSSFFSGTQDKCAACKKTVYPLEKMTMEGESYHKTCFRCAHSGCPLTHSSYAALDGVLYCKVHFSQLFLEKGNYNHVLQAAANHRRSTAEEDKTEPKEDEANPTEEETSDAAAEEHES
  protein production: failed

— a protein production outcome set (Wang et al. 2014)
